Measurements from US10155796B2, “Compositions and methods for inhibiting tumor cells by inhibiting the transcription factor ATF5” (The Trustees of Columbia University in the City of New York, priority 2013, dated 2018).

B1: TAT-d/n-ATF5: TAT-linked dominant-negative ATF5 peptide, recombinant; probably SEQ ID NO: 17 (protein)
chain: MGSSHHHHHHSSGLVPRGSHMLEYGRKKRRQRRRYPYDVPDYAMASMTGGQQMGRDPDLEQRAEELARENEELLEKEAEELEQENAELEGECQGLEARNRELRERAESV
B2: synthetic PEN-d/n-ATF5: chemically synthesized Penetratin-linked dominant-negative ATF5 peptide; probably SEQ ID NO: 19 (peptide)
chain: RQIKIWFQNRRMKWKKLEQRAEELARENEELLEKEAEELEQENAELEGECQGLEARNRELKERAESV

What was measured:
BCL2 survival protein = experiment: Western immunoblotting for BCL2 in U87 cells; assay type: cell-based, human; details: 30 hrs
Description: (§1) Cultured U87 human glioblastoma cells were treated with the indicated concentrations of TATZIP (TAT-d/n-ATF5 peptide) (in μM) for 30 hrs. The cells were then harvested and assessed by Western immunoblotting for expression of the survival protein BCL2. These findings indicate that in addition to elevating pro-death CHOP, TAT-d/n-ATF5 may also kill tumor cells by reducing their levels of the BCL2 survival protein.
as §1, with “As outlined in FIG. 17, cultured” for “Cultured”

MSG Cells = experiment: Cell viability, MTA assay; assay type: cell-based, mouse; details: 3 μM, 3-5 days
Description: (§2) FIG. 19 depicts recombinant TAT-d/n-ATF5 (3 μM) treatment for 3-5 days decreasing viability of two human and one mouse GMB cell line as established by MTA assay.

U373 = experiment: Cell viability, MTA assay; assay type: cell-based, human; details: 3 μM, 3-5 days
Description: as §2

[1] = tested on: U87 human glioblastoma cells; experiment: Cell viability, MTA assay; assay type: cell-based
Description: as §2
FIG. 20 depicts synthetic PEN-d/n-ATF5 treatment decreasing cell viability of cultured U87 human glioblastoma cells as established by MTA assay. 5 days treatment at indicated concentrations (μM).
5 days treatment at indicated concentrations (μM), as detected using an MTA assay.

endogenous ATF5 = experiment: Western immunoblotting for endogenous ATF5 in U373 glioblastoma cells; assay type: cell-based, human; details: 17 hrs
Sequence of endogenous ATF5 (Q9Y2D1 208-282 limits assumed): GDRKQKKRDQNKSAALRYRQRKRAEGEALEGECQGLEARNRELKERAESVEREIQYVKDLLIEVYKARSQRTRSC
Description: (§3) TAT-linked dominant-negative ATF5 peptide at the indicated concentrations (in μM) was added to medium of U373 glioblastoma cells for 17 hrs day and the cells were then harvested and analyzed by Western immunoblotting for levels of endogenous ATF5. […] As previous studies have shown that tumor cells require endogenous ATF5 to survive, the mechanism of action by which the cell-penetrating TAT-ZIP peptide kills may be by causing loss of the endogenous ATF5 protein. Note also the smear above the endogenous ATF5 when the TAT-ZIP peptide is present.
as §3, with “ATF5 peptide was added” for “ATF5 peptide at the indicated concentrations (in μM) was added”, “glioblastoma cells at the concentrations (in μM) indicated in FIG. 14 for 17” for “glioblastoma cells for 17”, “to survive, but without being bound by theory, the mechanism” for “to survive, the mechanism”

MEL501 melanoma cells = experiment: Apoptotic nuclei (Hoescht dye) in melanoma cells; assay type: cell-based, human; details: four days, concentrations in μM per FIG. 13
Description: TAT-linked dominant-negative ATF5 peptide at the indicated concentrations (in μM) was added to medium of MEL501 melanoma cells. Four days later the cells were stained with Hoescht dye and the cells were stained for proportion with apoptotic nuclei.
TAT-linked dominant-negative ATF5 peptide was added to medium of MEL501 melanoma cells at the concentrations (in μM) indicated in FIG. 13. Four days later the cells were stained with Hoescht dye and the cells were stained for proportion with apoptotic nuclei.

U87 cells = experiment: Apoptotic nuclei in U87 cells after CHOP silencing with siRNA; assay type: cell-based, human; details: siCHOP versus control siRNA, then peptide for 2 days
Description: Cells were treated with siCHOP to silence CHOP expression (top Western immunoblot) or with control siRNA. They were then exposed to TAT-d/n-ATF5 for 2 days and assessed for proportion of cells with apoptotic nuclei. The data support the idea that part of the mechanism by which TAT-d/n-ATF5 kills tumor cells is by increasing their expression of CHOP which in turn mediates death.
Cells were treated with siCHOP to silence CHOP expression (top Western immunoblot of FIG. 16) or with control siRNA. They were then exposed to TAT-d/n-ATF5 for 2 days and assessed for proportion of cells with apoptotic nuclei.

[2] = tested on: U87 human glioblastoma cells; assay type: cell-based
Text: (§4) FIG. 21 depicts recombinant TAT-d/n-ATF5 treatment promoting death of cultured U87 human glioblastoma cells as indicated by Annexin V/PI staining and flow cytometry. Proportions of viable cells are shown in lower left quadrant (88% control vs 58% treated). Dying cell proportions are in the lower right and upper right quadrants (9% in controls vs 36% in treated).
as §4, with “As outlined in FIG.” for “FIG.”, “21, Recombinant” for “21 depicts recombinant”, “promotes” for “treatment promoting”

DDIT3 (CHOP) = experiment: Western immunoblotting for CHOP in various tumor cell lines; assay type: cell-based; details: times and doses per FIG. 15
Description: Cells were treated with TAT-d/n-ATF5 for the indicated times at the indicated doses (in μM) and then harvested and analyzed by Western immunoblotting for expression of CHOP and other non-responsive proteins.
TAT-d/n-ATF5 (TAT-ZIP) peptide induces expression of the pro-death gene DDIT3 (CHOP) in various tumor cell lines. Cells were treated with TAT-d/n-ATF5 for the times and doses (in μM) indicated in FIG. 15 and then harvested and analyzed by Western immunoblotting for expression of CHOP and other non-responsive proteins.

U87 glioblastoma cells = experiment: Combination with temozolomide: apoptotic nuclei in U87 cells; assay type: cell-based, human; details: one day, sub-lethal TZIP 1 μM and TMZ 50 μM, separately or in combination
Description: (§5) Cells were cultured for one day with sub-lethal levels of TAT-d/n-ATF5 (TZIP 1 μM) and TMZ (50 μM) either separately or in combination, and then assessed for proportion of cells with apoptotic nuclei. TMZ is presently the first-line treatment for human GBM. The data reveal that TAT-d/n-ATF5 not only functions in presence of TMZ, but that the two drugs act in synergy to kill GBM cells.
as §5, with “As outlined in FIG. 18, cells” for “Cells”

[3] = tested on: U373 (human glioblastoma); experiment: Cell line susceptibility testing; assay type: cell-based; details: 1-3 μM range
Description: (§6) For example, but not by way of limitation, cell lines shown through testing to be susceptible to TAT-d/n-ATF5 (1-3 μM range) include: U87 (human glioblastoma); U373 (human glioblastoma); LN229 (human glioblastoma); C6 (rat glioblastoma); Mel501 (human melanoma); H2452 (human mesothelioma); MDA-MB-468 (human breast cancer). In addition, a non-limiting list of cell lines shown through testing to be susceptible to PEN-d/n-ATF5 (3 μM) include: Panc-1 (human pancreatic cancer); SH-SYSY (human neuroblastoma cells); and HCT-116 (colon-carcinoma cancer). The method of the present invention can be performed in vitro as well as in vivo in a subject. As used herein, “apoptosis” refers to cell death which is wholly or partially genetically controlled.

[4] = tested on: H2452 (human mesothelioma); experiment: Cell line susceptibility testing; assay type: cell-based; details: 1-3 μM range
Description: as §6

[5] = tested on: MDA-MB-468 (human breast cancer); experiment: Cell line susceptibility testing; assay type: cell-based; details: 1-3 μM range
Description: as §6

U87 (human glioblastoma) = experiment: Cell line susceptibility testing; assay type: cell-based; details: 1-3 μM range
Description: as §6

[6] = tested on: LN229 (human glioblastoma); experiment: Cell line susceptibility testing; assay type: cell-based; details: 1-3 μM range
Description: as §6

Mel501 (human melanoma) = experiment: Cell line susceptibility testing; assay type: cell-based; details: 1-3 μM range
Description: as §6

C6 (rat glioblastoma) = experiment: Cell line susceptibility testing; assay type: cell-based; details: 1-3 μM range
Description: as §6

[7] = tested on: primary GS9-6 human glioblastoma stem cells; experiment: Annexin V/PI staining and flow cytometry of spheres; assay type: cell-based; details: 6 days of treatment
Text: FIG. 22 depicts synthetic PEN-d/n-ATF5 promoting apoptotic death of primary GS9-6 human glioblastoma stem cells growing in culture as spheres. 6 days of treatment and data determined by Annexin V/PI staining and flow cytometry
FIG. 23 depicts recombinant PEN-d/n-ATF5 promoting apoptotic death of primary GS9-6 human glioblastoma stem cells growing in culture as spheres. 5 days of treatment and data determined by Annexin V/PI staining and flow cytometry.
Data reflects 6 days of treatment. Data determined by Annexin V/PI staining and flow cytometry.
5 days treatment. Data determined by Annexin V/PI staining and flow cytometry.

Row | Molecule | expression of the survival protein BCL2 (BCL2 survival protein) | cell viability (MSG Cells) | cell viability (U373) | cell viability ([1]; 3 μM, 3-5 days) | levels of endogenous ATF5 (endogenous ATF5) | proportion of cells with apoptotic nuclei (MEL501 melanoma cells) | effect of silencing of CHOP with siRNA on death caused by the peptide (U87 cells) | proportion of viable cells (lower left quadrant) [2] | dying cell proportion (lower right and upper right quadrants) ([2]; treated, controls 9%) | expression of CHOP (DDIT3 (CHOP)) | cell killing in combination with temozolomide (proportion of cells with apoptotic nuclei) (U87 glioblastoma cells) | susceptibility of cell line [3] | susceptibility of cell line [4] | susceptibility of cell line [5] | susceptibility of cell line (U87 (human glioblastoma)) | susceptibility of cell line [6] | susceptibility of cell line (Mel501 (human melanoma)) | susceptibility of cell line (C6 (rat glioblastoma)) | cell viability ([1]; 5 days treatment, concentrations (μM) per FIG. 20) | apoptotic death [7]
1 | B1 | down-regulates BCL2 survival protein | decreases viability | decreases viability | decreases viability | greatly reduces expression of endogenous ATF5 | promoted apoptosis in a dose-dependent fashion | partially protects | 58% | 36% | elevation of CHOP in all cases | synergizes with temozolomide (TMZ) to kill | susceptible | susceptible | susceptible | susceptible | susceptible | susceptible | susceptible |  | 
2 | B2 |  |  |  |  |  |  |  |  |  |  |  |  |  |  |  |  |  |  | decreases cell viability | promotes apoptotic death
